Laboratory results: article PMC4560640

Target: base subcomplex, heterologously expressed in E. coli (S. cerevisiae) (UniProt P38764)

Substance “Ubp6, wild type (from UniProt P43593 1-499) (enzyme)” has a Ub-AMC cleavage activity of Ubp6 with purified base against Ubp6 alone of 300 fold.
